From EP0842426B1

Key:
Experiment in all cases: cell-based or functional assay
[1] = molecular target: EGF receptor on NIH3T3 cells and NIH3T3 clones transfected with EGF receptor expression constructs
[2] = molecular target: ecotropic MLV receptor (mouse) (UniProt Q09143)
[3] = molecular target: human epidermal growth factor receptor (human) (UniProt P00533)
[4] = molecular target: amphotropic receptor on human B and T cell lines (K422 and Jurkat) (human) (UniProt Q08357)
[5] = molecular target: amphotropic MLV receptor on NIH3T3 mouse fibroblasts (mouse) (UniProt Q80UP8)
amphotropic MLV receptor on NIH3T3 mouse fibroblasts (mouse), sequence (Q80UP8 whole entry): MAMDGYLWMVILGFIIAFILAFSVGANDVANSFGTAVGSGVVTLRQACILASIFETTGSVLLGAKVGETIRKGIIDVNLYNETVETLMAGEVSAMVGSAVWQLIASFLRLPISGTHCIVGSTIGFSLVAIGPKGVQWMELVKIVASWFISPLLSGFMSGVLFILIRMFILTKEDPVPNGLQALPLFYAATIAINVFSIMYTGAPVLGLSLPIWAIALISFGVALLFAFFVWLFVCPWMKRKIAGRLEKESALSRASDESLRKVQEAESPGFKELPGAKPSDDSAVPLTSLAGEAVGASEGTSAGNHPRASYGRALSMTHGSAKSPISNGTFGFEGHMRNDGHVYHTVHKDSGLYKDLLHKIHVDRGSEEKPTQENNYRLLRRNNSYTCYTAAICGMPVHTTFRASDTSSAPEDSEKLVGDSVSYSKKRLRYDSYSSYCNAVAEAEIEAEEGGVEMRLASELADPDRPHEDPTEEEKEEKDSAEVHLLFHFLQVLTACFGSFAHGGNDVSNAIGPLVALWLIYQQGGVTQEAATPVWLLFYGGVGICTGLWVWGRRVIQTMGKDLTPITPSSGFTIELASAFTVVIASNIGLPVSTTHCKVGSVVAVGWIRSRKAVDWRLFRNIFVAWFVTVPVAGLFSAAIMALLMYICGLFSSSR

Moloney MLV ecotropic envelope glycoprotein (control envelope MO), sequence (P03385 34-665 limits assumed): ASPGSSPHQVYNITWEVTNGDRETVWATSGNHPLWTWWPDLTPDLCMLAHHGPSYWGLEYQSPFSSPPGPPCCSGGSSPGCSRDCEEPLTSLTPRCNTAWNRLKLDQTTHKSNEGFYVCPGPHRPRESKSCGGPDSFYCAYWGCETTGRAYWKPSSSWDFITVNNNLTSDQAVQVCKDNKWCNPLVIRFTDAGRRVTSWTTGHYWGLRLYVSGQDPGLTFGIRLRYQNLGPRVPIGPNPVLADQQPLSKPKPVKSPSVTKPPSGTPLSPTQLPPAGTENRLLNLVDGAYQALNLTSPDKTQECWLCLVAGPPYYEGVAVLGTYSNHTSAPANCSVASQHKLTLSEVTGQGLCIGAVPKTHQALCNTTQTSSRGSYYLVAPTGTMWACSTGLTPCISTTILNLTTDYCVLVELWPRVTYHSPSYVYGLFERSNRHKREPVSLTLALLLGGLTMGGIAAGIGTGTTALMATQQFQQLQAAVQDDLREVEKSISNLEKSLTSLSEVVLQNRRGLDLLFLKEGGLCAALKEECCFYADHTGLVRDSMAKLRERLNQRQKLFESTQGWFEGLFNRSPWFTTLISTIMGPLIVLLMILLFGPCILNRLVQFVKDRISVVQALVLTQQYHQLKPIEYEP
ecotropic MLV receptor (mouse), sequence (Q09143 whole entry): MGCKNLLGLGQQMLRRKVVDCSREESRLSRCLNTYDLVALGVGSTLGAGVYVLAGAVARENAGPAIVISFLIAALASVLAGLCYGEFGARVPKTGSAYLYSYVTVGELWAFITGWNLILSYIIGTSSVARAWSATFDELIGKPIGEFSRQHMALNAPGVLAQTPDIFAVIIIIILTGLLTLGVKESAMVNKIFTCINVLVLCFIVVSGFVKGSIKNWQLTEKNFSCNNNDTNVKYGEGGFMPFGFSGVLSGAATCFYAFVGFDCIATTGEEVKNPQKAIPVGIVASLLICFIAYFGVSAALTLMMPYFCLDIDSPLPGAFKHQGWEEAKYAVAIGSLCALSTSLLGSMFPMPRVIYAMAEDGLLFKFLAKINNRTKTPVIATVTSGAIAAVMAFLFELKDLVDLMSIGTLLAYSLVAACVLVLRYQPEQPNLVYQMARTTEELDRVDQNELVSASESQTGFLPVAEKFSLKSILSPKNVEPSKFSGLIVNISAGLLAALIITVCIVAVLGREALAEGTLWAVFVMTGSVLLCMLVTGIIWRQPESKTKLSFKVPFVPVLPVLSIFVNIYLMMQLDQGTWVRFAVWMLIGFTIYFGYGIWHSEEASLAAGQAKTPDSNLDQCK
amphotropic receptor on human B and T cell lines (K422 and Jurkat) (human), sequence (Q08357 whole entry): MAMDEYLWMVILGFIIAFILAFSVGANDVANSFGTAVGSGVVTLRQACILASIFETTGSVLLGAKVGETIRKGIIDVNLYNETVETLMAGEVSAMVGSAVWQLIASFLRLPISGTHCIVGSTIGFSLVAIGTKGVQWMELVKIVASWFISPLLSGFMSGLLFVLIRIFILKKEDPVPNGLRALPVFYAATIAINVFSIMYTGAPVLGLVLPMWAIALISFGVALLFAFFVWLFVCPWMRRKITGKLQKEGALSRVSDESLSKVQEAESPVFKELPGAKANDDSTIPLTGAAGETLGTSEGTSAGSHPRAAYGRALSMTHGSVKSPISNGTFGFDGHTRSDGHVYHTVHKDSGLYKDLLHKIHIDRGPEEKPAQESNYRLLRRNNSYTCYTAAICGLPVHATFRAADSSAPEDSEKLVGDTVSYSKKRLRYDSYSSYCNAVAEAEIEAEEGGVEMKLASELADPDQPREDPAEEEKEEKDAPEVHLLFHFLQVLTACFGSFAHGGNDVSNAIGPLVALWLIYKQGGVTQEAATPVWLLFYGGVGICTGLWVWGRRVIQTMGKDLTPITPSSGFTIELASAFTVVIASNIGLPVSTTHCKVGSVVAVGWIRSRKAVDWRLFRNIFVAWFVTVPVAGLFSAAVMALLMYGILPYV

Substance: chimaeric EMO envelope glycoprotein (human EGF inserted in the Moloney MLV envelope SU glycoprotein at amino acid +6) (from UniProt P03385 34-39; P01133 23-1207; P03385 40-469)
- reduction of virus titre by EGF.R expression on mouse fibroblasts [1]: < 1000 fold
- titre on NIH3T3 cells with EGFR No. 10,000, lacZ-EFU/ml [1]: 100000 lacZ-EFU/ml
- titre on NIH3T3 cells with EGFR No. 80,000, lacZ-EFU/ml [1]: 10000 lacZ-EFU/ml
- titre on NIH3T3 cells with EGFR No. 400,000, lacZ-EFU/ml [1]: 1000 lacZ-EFU/ml
- titre on 3T3 (NIH3T3), lacZ-EFU/ml [2]: 100000 lacZ-EFU/ml
- titre on 3T3/A (GP+EAM12, expressing amphotropic envelope), lacZ-EFU/ml [2]: 100000 lacZ-EFU/ml
- titre on 3T3/E (psi2, expressing MoMLV envelope), lacZ-EFU/ml [2]: < 1 lacZ-EFU/ml
- titre on A431 cells with chloroquine, lacZ EFU/ml [3]: 225 lacZ EFU/ml
- titre on NR6-wt hEGF.R cells, + rEGF (pre-incubated with recombinant EGF), lacZ-EFU/ml [3]: 100000 lacZ-EFU/ml
- titre on NR6-wt hEGF.R cells, - rEGF, lacZ-EFU/ml [3]: 1000 lacZ-EFU/ml
- titre on TE671 cells with chloroquine, lacZ EFU/ml [3]: 46 lacZ EFU/ml

Substance: Moloney MLV ecotropic envelope glycoprotein (control envelope MO) (from UniProt P03385 34-665)
- titre on 3T3 (NIH3T3), lacZ-EFU/ml [2]: 1e+07 lacZ-EFU/ml
- titre on 3T3/A (GP+EAM12, expressing amphotropic envelope), lacZ-EFU/ml [2]: 1e+07 lacZ-EFU/ml
- titre on 3T3/E (psi2, expressing MoMLV envelope), lacZ-EFU/ml [2]: < 1 lacZ-EFU/ml
- titre on EJ.A1 cells, lacZ-EFU/ml [2]: 1e+06 lacZ-EFU/ml

Substance: chimaeric EGF-4070A (EA) envelope glycoprotein (human EGF fused to the amphotropic 4070A MLV envelope at position +5) (from UniProt P03385 34-39; P01133 23-1207)
- titre on Jurkat cells (devoid of EGF.R), lacZ-EFU/ml [4]: 1000 lacZ-EFU/ml
- titre on K422 cells (devoid of EGF.R), lacZ-EFU/ml [4]: 10000 lacZ-EFU/ml
- inhibition of viral infection by EGF receptor expression on NR6 cells [3]: 100 fold
- titre on NR6-wt hEGF.R cells, + rEGF (pre-incubated with recombinant EGF), lacZ-EFU/ml [3]: 500000 lacZ-EFU/ml
- titre on NR6-wt hEGF.R cells, - rEGF, lacZ-EFU/ml [3]: 3000 lacZ-EFU/ml
- titre reduction on EGF receptor-positive human cells compared to control viruses with unmodified 4070A envelopes [3]: < 1e+07 fold

Substance: amphotropic 4070A MLV envelope glycoprotein (control envelope A)
- titre on 3T3 (NIH3T3), lacZ-EFU/ml (row shifted by one column) [5]: 1e+07 lacZ-EFU/ml
- titre on 3T3/A (GP+EAM12, expressing amphotropic envelope), lacZ-EFU/ml (row shifted by one column) [5]: 100 lacZ-EFU/ml
- titre on 3T3/E (psi2, expressing MoMLV envelope), lacZ-EFU/ml (row shifted by one column) [5]: 1e+07 lacZ-EFU/ml
